{"source": "patent US20010029022A1", "molecular_target": "CDK2 kinase complex (cyclin not given) (UniProt P24941)", "test": "cell-based or functional assay"}
{"binder": "GST-HPV6b E7 (protein) MHGRHVTLKDIVLDLQPPDPVGLHCYEQLVDSSEDEVDEVDGQDSQPLKQHFQIVTCCCGCDSNVRLVVQCTETDIREVQQLLLGTLNIVCPICAPKT", "values": [{"measurement": "CDK2 histone kinase activity, fold activation", "result": 15.8, "unit": "fold"}]}
